Results: the supplement of paper PMC10567573

B1: ZNF649 (parent)
chain: LTEHKRIHTGKKPHVCSLCGKAFY

Variants of: B1
Assay: protein stability index of a GFP-peptide fusion (GPS, HEK-293T) (PSI 1-6); higher = more stable
Settings: c terminus: a fixed tail appended
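Note: lentivirally expressed fusions sorted by FACS into six bins by GFP to DsRed ratio, PSI derived from sequencing read proportions per bin multiplied by bin number.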

Protein stability index: each site, then its substitutions
K12: G 3.6 | H 1.97 | I 2.5 | L 2.5 | M 2.28 | N 3.3 | P 2.31 | Q 2.39 | R 2.61 | S 1.78 | T 1.79 | V 3.42 | W 2.27 | Y 2.32
P13: D 1.8 | E 2.96 | F 2.23 | G 2.48 | H 2.29 | I 2.84 | K 2.03 | L 2.32 | M 3.06 | N 2.15 | Q 2.26 | R 3.48 | S 2.33 | T 3.55 | V 3.06 | Y 2.88
H14: A 3.54 | C 2.78 | D 2.34 | F 2.4 | G 2.22 | L 2.71 | M 2.86 | N 1.97 | P 3.18 | Q 2.97 | R 2.2 | S 2.25 | T 2.17 | V 1.96 | W 3.52 | Y 2.63
V15: A 1.54 | C 2.6 | D 2.93 | E 2.56 | F 2.42 | G 2.56 | H 2.34 | I 2.69 | K 2.9 | L 1.89 | M 2.98 | N 2.05 | P 2.71 | Q 2.35 | R 2.32 | S 2.23 | T 2.46 | W 1.83 | Y 2.55
C16: A 2.94 | D 3.15 | E 3.62 | F 1.48 | G 2.01 | H 2.71 | I 2.18 | K 2.32 | L 2.17 | M 2.75 | N 2.55 | P 2.56 | Q 1.93 | R 2.4 | S 3.52 | T 2.23 | V 2.2 | Y 2.23
S17: A 2.58 | C 1.96 | E 2.84 | F 2.2 | G 1.72 | H 2.01 | I 2.48 | K 2.34 | L 1.72 | M 2.83 | N 2.58 | P 2.97 | Q 2.46 | R 1.94 | T 1.82 | V 1.49 | W 2.72 | Y 2.11
L18: A 1.97 | C 3.2 | D 2.84 | E 3.18 | G 2.82 | H 3.13 | I 2.23 | K 2.66 | M 3.36 | N 5.08 | P 3.85 | Q 2.9 | R 3 | S 2.89 | T 2.35 | V 2.37 | W 1.7 | Y 2.2
C19: A 2.65 | D 3.3 | E 3.09 | F 1.81 | G 2.39 | H 3.06 | I 1.75 | K 2.64 | L 2.24 | M 2.46 | N 2.89 | P 2.38 | Q 2.04 | R 3.01 | S 1.92 | T 2.24 | V 2.1 | W 1.3 | Y 2.15
G20: A 3.75 | C 2.93 | D 2.79 | F 1.97 | H 1.6 | I 1.91 | K 1.24 | L 2.06 | M 2.56 | N 3.49 | P 1.91 | Q 3.04 | R 2.05 | S 2.35 | T 1.55 | V 1.94 | W 2.59 | Y 2.9
K21: A 2.03 | C 1.39 | D 2.72 | E 2.67 | F 1.73 | G 2.38 | H 1.91 | I 2.11 | L 1.77 | M 1.98 | N 3.08
